Results reported in publication PMC9482650, “Quantitative fragmentomics allow affinity mapping of interactomes” (Nature Communications, 2022).

Key:
Test in all cases: holdup assay
Set-up in all cases: key: below the threshold = too weak to quantify, mostly under pKd 3.1 to 4
[1] = molecular target: DLG1_3, Q12959
[2] = molecular target: T1, DLG3_1, Q92796
T1 sequence (Q92796 125-227, limits assumed, looked up): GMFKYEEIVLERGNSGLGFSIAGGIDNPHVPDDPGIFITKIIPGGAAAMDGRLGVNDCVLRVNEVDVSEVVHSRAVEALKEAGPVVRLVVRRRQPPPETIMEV

[3] = molecular target: Inadl_5, Q8NI35
[4] = molecular target: T2, PCLO, Q9Y6V0
T2 sequence (Q9Y6V0 4491-4600, limits assumed, looked up): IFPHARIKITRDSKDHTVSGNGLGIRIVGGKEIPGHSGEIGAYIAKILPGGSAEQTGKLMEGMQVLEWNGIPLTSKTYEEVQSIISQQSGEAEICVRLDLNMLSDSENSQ

[5] = molecular target: DLG2_3, Q15700
[6] = molecular target: T3, RHPN1, Q8TCX5
T3 sequence (Q8TCX5 508-602, limits assumed, looked up): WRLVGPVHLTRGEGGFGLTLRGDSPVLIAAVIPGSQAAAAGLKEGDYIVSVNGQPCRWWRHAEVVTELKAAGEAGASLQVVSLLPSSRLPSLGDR

[7] = molecular target: MAGI2_4, Q86UL8
[8] = molecular target: T4, LRRC7, Q96NW7
T4 sequence (Q96NW7 1440-1537, limits assumed, looked up): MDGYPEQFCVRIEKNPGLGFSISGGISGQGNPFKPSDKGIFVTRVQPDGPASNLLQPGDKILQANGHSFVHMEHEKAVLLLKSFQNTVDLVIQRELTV

[9] = molecular target: GRIP2_7, Q9C0E4
[10] = molecular target: GRID2IP_2, A4D2P6
[11] = molecular target: LIMK2, P53671
[12] = molecular target: T5, GRIP1_3, Q9Y3R0
T5 sequence (Q9Y3R0 247-346, limits assumed, looked up): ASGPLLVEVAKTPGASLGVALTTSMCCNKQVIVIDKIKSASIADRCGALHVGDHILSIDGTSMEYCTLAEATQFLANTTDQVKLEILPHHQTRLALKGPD

[13] = molecular target: T6, TX1BP3, O14907
T6 sequence (O14907 10-122, limits assumed, looked up): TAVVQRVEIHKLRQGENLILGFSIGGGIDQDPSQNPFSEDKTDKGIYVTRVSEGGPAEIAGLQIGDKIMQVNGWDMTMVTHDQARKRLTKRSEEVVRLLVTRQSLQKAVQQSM

[14] = molecular target: HTRA1, Q92743
[15] = molecular target: T7, GRIP1_7, Q9Y3R0
T7 sequence (Q9Y3R0 999-1096, limits assumed, looked up): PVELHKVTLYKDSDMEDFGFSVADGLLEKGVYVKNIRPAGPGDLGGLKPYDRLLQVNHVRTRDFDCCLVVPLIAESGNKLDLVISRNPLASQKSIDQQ

[16] = molecular target: MAST1, Q9Y2H9
[17] = molecular target: T8, DVL3, Q92997
T8 sequence (Q92997 244-331, limits assumed, looked up): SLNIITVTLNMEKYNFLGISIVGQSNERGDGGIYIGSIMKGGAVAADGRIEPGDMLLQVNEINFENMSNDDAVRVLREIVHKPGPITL

[18] = molecular target: T9, NHERF3_4, Q5T2W1
T9 sequence (Q5T2W1 373-468, limits assumed, looked up): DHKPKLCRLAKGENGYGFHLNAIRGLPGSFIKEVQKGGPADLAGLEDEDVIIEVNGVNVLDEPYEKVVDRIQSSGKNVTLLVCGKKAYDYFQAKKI

[19] = molecular target: PDZRN4_1, Q6ZMN7
[20] = molecular target: T10, NHERF3_3, Q5T2W1
T10 sequence (Q5T2W1 238-333, limits assumed, looked up): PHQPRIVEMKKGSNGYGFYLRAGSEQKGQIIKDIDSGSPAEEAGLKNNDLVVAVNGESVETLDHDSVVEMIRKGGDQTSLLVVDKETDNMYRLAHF

[21] = molecular target: T11, SYNJ2BP, P57105
T11 sequence (P57105 8-110, limits assumed, looked up): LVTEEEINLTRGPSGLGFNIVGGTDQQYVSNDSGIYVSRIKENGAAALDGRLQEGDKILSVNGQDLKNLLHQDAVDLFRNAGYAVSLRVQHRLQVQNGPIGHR

[22] = molecular target: T12, MPP7, Q5T2T1
T12 sequence (Q5T2T1 134-230, limits assumed, looked up): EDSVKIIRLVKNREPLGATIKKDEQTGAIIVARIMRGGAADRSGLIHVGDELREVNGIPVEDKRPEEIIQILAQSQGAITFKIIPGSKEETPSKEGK

[23] = molecular target: T13, SNTA1, Q13424
T13 sequence (Q13424 82-180, limits assumed, looked up): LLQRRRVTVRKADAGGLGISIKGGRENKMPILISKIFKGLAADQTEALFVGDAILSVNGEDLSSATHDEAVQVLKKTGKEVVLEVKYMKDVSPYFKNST

[24] = plain residues with an end cap or a label only (N-terminal biotin on a linker: ado-ado)
[25] = modified: phospho on T at position -2 from the C-terminal residue

PDZRN4_1, Q6ZMN7, sequence (Q6ZMN7 213-318): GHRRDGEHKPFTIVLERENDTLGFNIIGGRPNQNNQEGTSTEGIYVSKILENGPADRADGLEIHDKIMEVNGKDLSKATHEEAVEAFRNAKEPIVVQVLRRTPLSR
MAGI2_4, Q86UL8, sequence (Q86UL8 772-865): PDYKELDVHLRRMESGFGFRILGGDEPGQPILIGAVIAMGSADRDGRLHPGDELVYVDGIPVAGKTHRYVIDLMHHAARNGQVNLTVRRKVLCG
HTRA1, Q92743, sequence (Q92743 360-477): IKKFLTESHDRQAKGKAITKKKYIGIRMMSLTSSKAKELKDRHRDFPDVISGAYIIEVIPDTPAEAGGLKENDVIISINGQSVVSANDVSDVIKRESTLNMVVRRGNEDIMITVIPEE
LIMK2, P53671, sequence (P53671 143-248): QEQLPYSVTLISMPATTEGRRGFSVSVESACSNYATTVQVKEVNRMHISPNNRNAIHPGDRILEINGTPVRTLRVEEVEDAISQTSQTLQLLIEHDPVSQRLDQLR
DLG1_3, Q12959, sequence (Q12959 457-571): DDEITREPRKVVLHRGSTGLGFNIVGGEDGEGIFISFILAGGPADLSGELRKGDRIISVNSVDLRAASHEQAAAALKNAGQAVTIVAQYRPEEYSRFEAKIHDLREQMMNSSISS
GRID2IP_2, A4D2P6, sequence (A4D2P6 272-370): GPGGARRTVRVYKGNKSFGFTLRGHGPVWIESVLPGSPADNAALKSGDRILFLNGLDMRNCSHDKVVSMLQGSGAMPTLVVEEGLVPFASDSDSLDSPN
MAST1, Q9Y2H9, sequence (Q9Y2H9 962-1065): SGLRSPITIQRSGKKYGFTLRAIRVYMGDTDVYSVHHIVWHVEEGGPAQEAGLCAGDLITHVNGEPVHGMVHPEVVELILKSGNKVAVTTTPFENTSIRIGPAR
Inadl_5, Q8NI35, sequence (Q8NI35 673-780): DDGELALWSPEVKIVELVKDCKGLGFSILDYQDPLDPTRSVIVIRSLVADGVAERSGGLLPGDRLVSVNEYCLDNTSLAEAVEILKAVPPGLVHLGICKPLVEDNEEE
GRIP2_7, Q9C0E4, sequence (Q9C0E4 934-1023): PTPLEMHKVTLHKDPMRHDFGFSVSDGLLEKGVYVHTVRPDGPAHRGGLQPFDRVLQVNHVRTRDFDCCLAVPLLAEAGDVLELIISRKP

NSTHNLKDYV [CLDN20, P56880]
pKd [1, 24]: below the threshold | pKd [2, 24]: below the threshold | pKd [3, 24]: below the threshold | pKd [4, 24]: below the threshold | pKd [5, 24]: below the threshold | pKd [6, 24]: below the threshold | pKd [7, 24]: below the threshold | pKd [8, 24]: below the threshold | pKd [9, 24]: below the threshold | pKd [10, 24]: below the threshold | pKd [11, 24]: below the threshold | pKd [12, 24]: below the threshold | pKd [13, 24]: below the threshold | pKd [14, 24]: 3.64 | pKd [15, 24]: below the threshold | pKd [16, 24]: 3.65 | pKd [17, 24]: below the threshold | pKd [18, 24]: below the threshold | pKd [19, 24]: below the threshold | pKd [20, 24]: below the threshold | pKd [21, 24]: below the threshold | pKd [22, 24]: below the threshold | pKd [23, 24]: below the threshold

DLLGGGSDSI [TNRC6B, Q9UPQ9]
pKd [1, 24]: below the threshold | pKd [2, 24]: below the threshold | pKd [3, 24]: below the threshold | pKd [4, 24]: below the threshold | pKd [5, 24]: 3.62 | pKd [6, 24]: 3.79 | pKd [7, 24]: below the threshold | pKd [8, 24]: below the threshold | pKd [9, 24]: below the threshold | pKd [10, 24]: below the threshold | pKd [11, 24]: below the threshold | pKd [12, 24]: below the threshold | pKd [13, 24]: below the threshold | pKd [14, 24]: below the threshold | pKd [15, 24]: below the threshold | pKd [16, 24]: 3.85 | pKd [17, 24]: below the threshold | pKd [18, 24]: below the threshold | pKd [19, 24]: below the threshold | pKd [20, 24]: below the threshold | pKd [21, 24]: below the threshold | pKd [22, 24]: below the threshold | pKd [23, 24]: below the threshold

TKEIPNCTSV [SORCS3, Q9UPU3]
pKd [1, 24]: 4.14 | pKd [2, 24]: 3.64 | pKd [3, 24]: below the threshold | pKd [4, 24]: below the threshold | pKd [5, 24]: 4.24 | pKd [6, 24]: 3.81 | pKd [7, 24]: 4.16 | pKd [8, 24]: below the threshold | pKd [9, 24]: below the threshold | pKd [10, 24]: 4.29 | pKd [11, 24]: below the threshold | pKd [12, 24]: below the threshold | pKd [13, 24]: 4.47 | pKd [14, 24]: 3.82 | pKd [15, 24]: below the threshold | pKd [16, 24]: 4.99 | pKd [17, 24]: below the threshold | pKd [18, 24]: below the threshold | pKd [19, 24]: 3.94 | pKd [20, 24]: below the threshold | pKd [21, 24]: 4.72 | pKd [22, 24]: below the threshold | pKd [23, 24]: 4.16

QLKSGRDSTV [TMEM178A, Q8NBL3]
pKd [1, 24]: 3.85 | pKd [2, 24]: 3.82 | pKd [3, 24]: 3.58 | pKd [4, 24]: below the threshold | pKd [5, 24]: below the threshold | pKd [6, 24]: 4.06 | pKd [7, 24]: 3.92 | pKd [8, 24]: below the threshold | pKd [9, 24]: 3.55 | pKd [10, 24]: 3.54 | pKd [11, 24]: below the threshold | pKd [12, 24]: below the threshold | pKd [13, 24]: 3.91 | pKd [14, 24]: 4.4 | pKd [15, 24]: below the threshold | pKd [16, 24]: 4.02 | pKd [17, 24]: below the threshold | pKd [18, 24]: 3.58 | pKd [19, 24]: 3.53 | pKd [20, 24]: below the threshold | pKd [21, 24]: 4.48 | pKd [22, 24]: below the threshold | pKd [23, 24]: 3.88

SRSRRRETAL [HPV33-E6_-2P, P06427]
pKd [1, 25]: below the threshold | pKd [2, 25]: below the threshold | pKd [3, 25]: below the threshold | pKd [4, 25]: below the threshold | pKd [5, 25]: below the threshold | pKd [6, 25]: below the threshold | pKd [7, 25]: below the threshold | pKd [8, 25]: below the threshold | pKd [9, 25]: below the threshold | pKd [10, 25]: below the threshold | pKd [11, 25]: below the threshold | pKd [12, 25]: below the threshold | pKd [13, 25]: below the threshold | pKd [14, 25]: below the threshold | pKd [15, 25]: below the threshold | pKd [16, 25]: below the threshold | pKd [17, 25]: below the threshold | pKd [18, 25]: below the threshold | pKd [19, 25]: below the threshold | pKd [20, 25]: below the threshold | pKd [21, 25]: below the threshold | pKd [22, 25]: below the threshold | pKd [23, 25]: below the threshold

DYSNLRETDI [ADRA1D, P25100]
pKd [1, 24]: below the threshold | pKd [2, 24]: 3.6 | pKd [3, 24]: below the threshold | pKd [4, 24]: below the threshold | pKd [5, 24]: below the threshold | pKd [6, 24]: 4.35 | pKd [7, 24]: below the threshold | pKd [8, 24]: 3.48 | pKd [9, 24]: below the threshold | pKd [10, 24]: below the threshold | pKd [11, 24]: below the threshold | pKd [12, 24]: below the threshold | pKd [13, 24]: 4.51 | pKd [14, 24]: below the threshold | pKd [15, 24]: below the threshold | pKd [16, 24]: 4.34 | pKd [17, 24]: below the threshold | pKd [18, 24]: below the threshold | pKd [19, 24]: below the threshold | pKd [20, 24]: below the threshold | pKd [21, 24]: 4.43 | pKd [22, 24]: below the threshold | pKd [23, 24]: 5.71
